Source: US20180037631A1 (Bristol-Myers Squibb, published 2018)
Where two headings read alike, the source gives them in different places.

Key:
[1] = target: T1, EGFR on the surface of human tumour cells (A431, H292) (human, UniProt P00533 25-1210); test: cell-based or functional assay
[2] = target: T2, IGF-IR on human tumour cells (H292, MCF-7, RH41) (human, UniProt P08069 31-1367); test: cell-based or functional assay
[3] = target: T3, Recombinant human EGFR-Fc (aa 1-645 of the extracellular domain of human EGFR fused to human Fc) (human, UniProt P00533 25-645); test: SPR Biacore
T3 construct: range 1-645; bought from R&D Systems; also called EGFR645-Fc; EGFR-Fc (HER-1); not shown: human Fc

[4] = target: T4, IGF1R-Fc (extracellular domain of human IGF1R aa 1-932 fused to hinge and constant regions of human IgG1) (human, UniProt P08069 31-932); test: SPR Biacore
T4 construct: range 1-932; made in house by transient transfection, purified on Protein A; also called IGF-IR-Fc; not shown: hinge and constant regions of human IgG1

[5] = target: T4, IGF1R-Fc (extracellular domain of human …); test: SPR Biacore, IGF1R-Fc
[6] = target: T4, IGF1R-Fc (extracellular domain of human …); test: SPR Biacore, IGF1R-Fc; against I1-GS10-E5 pegylated
[7] = target: T3, Recombinant human EGFR-Fc (aa 1-645 of …); test: SPR Biacore, EGFR645-Fc; against I1-GS10-E5 Pegylated
[8] = target: T3, Recombinant human EGFR-Fc (aa 1-645 of …); test: SPR Biacore, EGFR645-Fc
[9] = target: T3, Recombinant human EGFR-Fc (aa 1-645 of …)
[10] = target: T1, EGFR on the surface of human tumour …
[11] = target: T1, EGFR on the surface of human tumour …; test: cell-based or functional assay; remark: listed apart in the source
[12] = target: T2, IGF-IR on human tumour cells (H292, …); test: cell-based or functional assay; remark: listed apart in the source
[13] = target: T4, IGF1R-Fc (extracellular domain of human …)
[14] = target: rat EGFR (rat, UniProt A0ABK0LZB0 35-1214); test: SPR Biacore
[15] = target: mouse EGFR (mouse, UniProt Q01279 25-647, limits assumed); test: SPR Biacore
[16] = target: monkey EGFR (monkey); test: SPR Biacore
[17] = target: T2, IGF-IR on human tumour cells (H292, …); test: cell-based or functional assay; remark: listed apart in the source

| Binder | pEGFR IC50 [1] | pERK IC50 [1] | pIGFR IC50 [2] | Kd [3] | Kd [4] | Kd [5] | koff [5] | kon [5] | ΔKd (fold) [6] | Δka (fold) [6] | Δkd (fold) [6] | ΔKd (fold) [7] | Δka (fold) [7] | Δkd (fold) [7] | Kd [8] | koff [8] | kon [8] | Kd [14] | Kd [15] | Kd [16] | also measured |
| --- | --- | --- | --- | --- | --- | --- | --- | --- | --- | --- | --- | --- | --- | --- | --- | --- | --- | --- | --- | --- | --- |
| I1-GSGCGS8-E5 pegylated (designed binder, PEG on the Cys of the GSGCGS8 linker, alternative clone of I1-GS10-E5 pegylated; tail of first monomer EIEK (D to E); also called I1-GSGCGS8-E5(3)) MGVSDVPRDLEVVAATPTSLLISWSARLKVARYYRITYGETGGNSPVQEFTVPKNVYTATISGLKPGVDYTITVYAVTRFRDYQPISINYRTEIEKGSGCGSGSGSGSGSGSGSGSVSDVPRDLEVVAATPTSLLISWWAPVDRYQYYRITYGETGGNSPVQEFTVPRDVYTATISGLKPGVDYTITVYAVTDYKPHADGPHTYHESPISINYRTEHHHHHH | 19.8 nM | 8 nM | 1.4 nM | 4 nM | 0.29 nM | 0.29 nM | 0.000245 s⁻¹ | 852000 M⁻¹ s⁻¹ | 0.9 fold | 0.8 fold | 1.1 fold | 0.7 fold | 1 fold | 0.6 fold | 4 nM | 0.000118 s⁻¹ | 29400 M⁻¹ s⁻¹ | – | – | – | – |
| I1(S91C)-GS10-E5 pegylated (designed binder, PEG on Cys at position 91 of I1 (position of SEQ ID NO: 1), also called I1(S91C)-GS10-E5(7)) MGVSDVPRDLEVVAATPTSLLISWSARLKVARYYRITYGETGGNSPVQEFTVPKNVYTATISGLKPGVDYTITVYAVTRFRDYQPICINYRTEIEKGSGSGSGSGSGSGSGSGSGSVSDVPRDLEVVAATPTSLLISWWAPVDRYQYYRITYGETGGNSPVQEFTVPRDVYTATISGLKPGVDYTITVYAVTDYKPHADGPHTYHESPISINYRTEHHHHHH | 22.7 nM | 15 nM | 6.2 nM | 17 nM | 7.16 nM | 7.16 nM | 0.000589 s⁻¹ | 82200 M⁻¹ s⁻¹ | 0.04 fold | 0.1 fold | 0.4 fold | 0.2 fold | 0.7 fold | 0.2 fold | 17 nM | 0.000334 s⁻¹ | 19600 M⁻¹ s⁻¹ | – | – | – | – |
| I1(S62C)-GS10-E5 pegylated (designed binder, PEG on Cys at position 62 of I1 (position of SEQ ID NO: 1), also called I1(S62C)-GS10-E5(5)) MGVSDVPRDLEVVAATPTSLLISWSARLKVARYYRITYGETGGNSPVQEFTVPKNVYTATICGLKPGVDYTITVYAVTRFRDYQPISINYRTEIEKGSGSGSGSGSGSGSGSGSGSVSDVPRDLEVVAATPTSLLISWWAPVDRYQYYRITYGETGGNSPVQEFTVPRDVYTATISGLKPGVDYTITVYAVTDYKPHADGPHTYHESPISINYRTEHHHHHH | 21 nM | 10 nM | 1.9 nM | 8.7 nM | 0.7 nM | 0.7 nM | 0.000234 s⁻¹ | 334000 M⁻¹ s⁻¹ | 0.4 fold | 0.3 fold | 1.1 fold | 0.3 fold | 0.8 fold | 0.4 fold | 8.7 nM | 0.000199 s⁻¹ | 22800 M⁻¹ s⁻¹ | – | – | – | – |
| I1-GS10-E5 pegylated, His-tagged (designed binder, 40 kDa branched PEG on the Cys of the C-terminal Cys tail, also called I1-GS10-E5 (with Peg)) MGVSDVPRDLEVVAATPTSLLISWSARLKVARYYRITYGETGGNSPVQEFTVPKNVYTATISGLKPGVDYTITVYAVTRFRDYQPISINYRTEIDKGSGSGSGSGSGSGSGSGSGSVSDVPRDLEVVAATPTSLLISWWAPVDRYQYYRITYGETGGNSPVQEFTVPRDVYTATISGLKPGVDYTITVYAVTDYKPHADGPHTYHESPISINYRTEIDKPCQHHHHHH | – | – | 2.2 nM | – | – | – | – | – | – | – | – | – | – | – | – | – | – | 3.6 nM | 3.4 nM | 5.1 nM | inhibition of RH41 cell proliferation, IC50 [17]: 0.2 nM |

Continued, in another order:

| pEGFR IC50 [1] | pERK IC50 [1] | pIGFR IC50 [2] | Kd [3] | Kd [4] | Kd [5] | koff [5] | kon [5] | ΔKd (fold) [6] | Δka (fold) [6] | Δkd (fold) [6] | ΔKd (fold) [7] | Δka (fold) [7] | Δkd (fold) [7] | Kd [8] | koff [8] | kon [8] | Kd [14] | Kd [15] | Kd [16] | Binder | also measured |
| --- | --- | --- | --- | --- | --- | --- | --- | --- | --- | --- | --- | --- | --- | --- | --- | --- | --- | --- | --- | --- | --- |
| 68.4 nM | 30 nM | 2.2 nM | 1.7 nM | 0.26 nM | 0.26 nM | 0.000279 s⁻¹ | 1.07e+06 M⁻¹ s⁻¹ | 1 fold | 1 fold | 0.9 fold | 1.6 fold | 0.6 fold | 2.4 fold | 1.7 nM | 3.04e-05 s⁻¹ | 17800 M⁻¹ s⁻¹ | – | – | – | I1-GS10-E5(S62C) pegylated (designed binder, PEG on Cys at position 62 of E5 (position of SEQ ID NO: 1), also called I1-GS10-E5(S62C)(6)) MGVSDVPRDLEVVAATPTSLLISWSARLKVARYYRITYGETGGNSPVQEFTVPKNVYTATISGLKPGVDYTITVYAVTRFRDYQPISINYRTEIEKGSGSGSGSGSGSGSGSGSGSVSDVPRDLEVVAATPTSLLISWWAPVDRYQYYRITYGETGGNSPVQEFTVPRDVYTATICGLKPGVDYTITVYAVTDYKPHADGPHTYHESPISINYRTEHHHHHH | – |
| 22.6 nM | 29 nM | 2.1 nM | 17.9 nM | 0.28 nM | 0.28 nM | 0.000281 s⁻¹ | 986000 M⁻¹ s⁻¹ | 0.9 fold | 0.9 fold | 0.9 fold | 0.2 fold | 0.4 fold | 0.4 fold | 17.9 nM | 0.000193 s⁻¹ | 10800 M⁻¹ s⁻¹ | – | – | – | I1-GS10-E5(S91C) pegylated (designed binder, PEG on Cys at position 91 of E5 (position of SEQ ID NO: 1), also called I1-GS10-E5(S91C)(8)) MGVSDVPRDLEVVAATPTSLLISWSARLKVARYYRITYGETGGNSPVQEFTVPKNVYTATISGLKPGVDYTITVYAVTRFRDYQPISINYRTEIEKGSGSGSGSGSGSGSGSGSGSVSDVPRDLEVVAATPTSLLISWWAPVDRYQYYRITYGETGGNSPVQEFTVPRDVYTATISGLKPGVDYTITVYAVTDYKPHADGPHTYHESPICINYRTEHHHHHH | – |
| – | – | – | – | – | – | – | – | – | – | – | – | – | – | – | – | – | 10.7 nM | 13.9 nM | 7 nM | I1-GS10-E85 pegylated, His-tagged (designed binder, 40 kDa branched PEG on the Cys of the C-terminal Cys tail) MGVSDVPRDLEVVAATPTSLLISWSARLKVARYYRITYGETGGNSPVQEFTVPKNVYTATISGLKPGVDYTITVYAVTRFRDYQPISINYRTEIDKGSGSGSGSGSGSGSGSGSGSVSDVPRDLEVVAATPTSLLISWTQGSTHYQYYRITYGETGGNSPVQEFTVPGMVYTATISGLKPGVDYTITVYAVTDYFDRSTHEYKYRTTPISINYRTEIDKPCQHHHHHH | Kd [9]: 5.97 nM; IC50 [10]: 37.8 nM; IC50, EGF-induced EGFR phosphorylation, A431 cells, In Cell Western [11]: 22 nM; IC50, EGF-induced ERK phosphorylation, A431 cells, In Cell Western [11]: 23 nM; IC50, EGF-stimulated EGFR phosphorylation, H292 cells, ELISA [11]: 8 nM; IC50, IGF1-stimulated IGFR phosphorylation, H292 cells, ELISA [12]: 0.7 nM; Kd [13]: 0.43 nM |
| 28.7 nM | 19 nM | 1.2 nM | 1.4 nM | 0.25 nM | 0.25 nM | 0.000265 s⁻¹ | 1.07e+06 M⁻¹ s⁻¹ | 1 fold | 1 fold | 1 fold | 2 fold | 1.1 fold | 1.6 fold | 1.4 nM | 4.52e-05 s⁻¹ | 33400 M⁻¹ s⁻¹ | – | – | – | I1-GS10-E5-GSGC pegylated (designed binder, PEG on the Cys of the GSGC tail of E5, alternative clone of I1-GS10-E5 pegylated; also called I1-GS10-E5-GSGC(4)) MGVSDVPRDLEVVAATPTSLLISWSARLKVARYYRITYGETGGNSPVQEFTVPKNVYTATISGLKPGVDYTITVYAVTRFRDYQPISINYRTEIEKGSGSGSGSGSGSGSGSGSGSVSDVPRDLEVVAATPTSLLISWWAPVDRYQYYRITYGETGGNSPVQEFTVPRDVYTATISGLKPGVDYTITVYAVTDYKPHADGPHTYHESPISINYRTEGSGCHHHHHH | – |
| – | – | – | – | – | – | – | – | – | – | – | – | – | – | – | – | – | 2.9 nM | 2.7 nM | 4.4 nM | I1-GS10-E105 pegylated, His-tagged (designed binder, 40 kDa branched PEG on the Cys of the C-terminal Cys tail) MGVSDVPRDLEVVAATPTSLLISWSARLKVARYYRITYGETGGNSPVQEFTVPKNVYTATISGLKPGVDYTITVYAVTRFRDYQPISINYRTEIDKGSGSGSGSGSGSGSGSGSGSVSDVPRDLEVVAATPTSLLISWDAPTSRYQYYRITYGETGGNSPVQEFTVPGGLSTATISGLKPGVDYTITVYAVTDYKPHADGPHTYHESPISINYRTEIDKPCQHHHHHH | IC50, IGF1-stimulated IGFR phosphorylation, H292 cells, ELISA [12]: 0.5 nM |
